According to PMC2481281:
pIC50: −log10 of the molar value.

Tests used:
[1] = target: CXCL12γ protein, chemically synthesized (γ-wt) (mouse); experiment: SDS-PAGE and immunoblot; chemically synthesized chemokines separated by SDS-PAGE and probed with the K15C mAb; dimeric forms seen
[2] = target: CXCR7 on CXCR7-transduced A0.01 cells (UniProt P25106); experiment: flow cytometry on cells; competition: 1 nM α-biot on CXCR7-transduced A0.01 cells with increasing concentrations of untagged chemokine, washed, labelled with 1 µg/ml streptavidin-PE; normalised to binding without competitor; one-site non-linear regression
[3] = target: α-wt C9 (CXCL12α with C-terminal bovine rhodopsin C9 tag) (mouse) (UniProt P40224); experiment: SDS-PAGE and immunoblot; lysates of SFV-infected BHK cells separated by SDS-PAGE and probed with the K15C mAb; dimeric forms seen
[4] = target: γ-wt C9 (CXCL12γ with C-terminal bovine rhodopsin C9 tag) (mouse); experiment: as above

Sequence of UniProt P25106 (P25106 whole entry): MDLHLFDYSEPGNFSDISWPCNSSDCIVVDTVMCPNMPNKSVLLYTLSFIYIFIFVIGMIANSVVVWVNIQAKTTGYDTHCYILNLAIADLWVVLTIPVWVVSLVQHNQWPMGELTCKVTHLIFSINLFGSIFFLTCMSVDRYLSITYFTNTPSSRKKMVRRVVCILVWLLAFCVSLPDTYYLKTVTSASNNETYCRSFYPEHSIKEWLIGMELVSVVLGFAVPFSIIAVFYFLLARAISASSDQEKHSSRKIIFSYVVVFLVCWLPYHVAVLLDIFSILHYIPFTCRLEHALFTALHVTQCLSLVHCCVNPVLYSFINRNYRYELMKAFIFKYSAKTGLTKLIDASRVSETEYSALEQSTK

“CXCL12γ protein, chemically synthesized (γ-wt) (ligand)” gave a stoichiometry N [1] of 2 and a pIC50 [2] of 7.98.
In the case of “α-wt C9 (CXCL12α with C-terminal bovine rhodopsin C9 tag) (from UniProt P40224-2 22-93) (ligand)”, the stoichiometry N [3] was 2.
With “γ-wt C9 (CXCL12γ with C-terminal bovine rhodopsin C9 tag) (ligand)” the stoichiometry N [4] was 2.
